The text below walks through data of patent publication US20140087995A1 (published 2014).

Numbered stars: 1 amine (or outer) side, 2 acyl side, 3 side chain; on linkers, the order of the positions; unused ones are H or OH. Bridge positions count the residues as written; N and C are the ends. Side chains are listed from the residue outwards. Ends that are not written are not given here. * marks the point of attachment. C20 diacid = O=C(O)CCCCCCCCCCCCCCCCCCC(=O)*; γGlu = O=C(O)[C@H](CCC(=O)[*:2])N[*:1]

In general, IC50 refers to the midpoint of a concentration-inhibition curve.

In test [1] the target is T1, human amylin receptor (amylin 3(a) receptor: human calcitonin receptor with RAMP-3) (human, UniProt P30988 25-474; O60896 24-148).
T1 construct: whole, on cells; Assay used cell membranes of the Amylin 3(a)/CRE-luc BHK cells, not intact cells; also called hAmylin-R; hAmylinR
T1 sequence (looked up) 1: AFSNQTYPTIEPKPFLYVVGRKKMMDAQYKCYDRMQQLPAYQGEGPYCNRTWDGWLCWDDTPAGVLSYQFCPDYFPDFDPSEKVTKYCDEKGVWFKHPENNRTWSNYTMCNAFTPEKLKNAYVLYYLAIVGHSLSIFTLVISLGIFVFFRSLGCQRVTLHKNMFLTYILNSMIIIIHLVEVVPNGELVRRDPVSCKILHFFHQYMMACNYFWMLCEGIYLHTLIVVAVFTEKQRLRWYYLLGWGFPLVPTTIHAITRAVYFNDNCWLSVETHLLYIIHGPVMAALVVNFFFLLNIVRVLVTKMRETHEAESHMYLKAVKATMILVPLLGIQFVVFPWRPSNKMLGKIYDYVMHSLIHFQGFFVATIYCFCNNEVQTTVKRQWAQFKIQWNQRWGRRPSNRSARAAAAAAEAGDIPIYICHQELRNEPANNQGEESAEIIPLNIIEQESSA
T1 sequence (looked up) 2: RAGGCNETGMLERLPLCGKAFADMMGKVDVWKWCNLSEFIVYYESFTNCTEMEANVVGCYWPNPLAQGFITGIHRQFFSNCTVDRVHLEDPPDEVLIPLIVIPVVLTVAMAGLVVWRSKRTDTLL
The test is described as follows: SPA competition with 125I-rat amylin on membranes of BHK cells with human calcitonin receptor and RAMP-3 (Assay V). Put shortly: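 Membranes from BHK Amylin 3(a)/CRE-luc cells (35 ng/μL final) were mixed with SPA beads and test compounds in 50 mM Hepes pH 7.4 with 1 mM CaCl2, 5 mM MgCl₂, 0.1% OA and 0.02% Tween20. Incubation ran 120 min at 25° C with shaking; IC₅₀ came from one-site competition fitting.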

Test [2] addresses T2, human calcitonin receptor (human, UniProt P30988 25-474).
T2 construct: whole, on cells; Assay used cell membranes, not intact cells; also called hCTR; hCT
T2 sequence (looked up): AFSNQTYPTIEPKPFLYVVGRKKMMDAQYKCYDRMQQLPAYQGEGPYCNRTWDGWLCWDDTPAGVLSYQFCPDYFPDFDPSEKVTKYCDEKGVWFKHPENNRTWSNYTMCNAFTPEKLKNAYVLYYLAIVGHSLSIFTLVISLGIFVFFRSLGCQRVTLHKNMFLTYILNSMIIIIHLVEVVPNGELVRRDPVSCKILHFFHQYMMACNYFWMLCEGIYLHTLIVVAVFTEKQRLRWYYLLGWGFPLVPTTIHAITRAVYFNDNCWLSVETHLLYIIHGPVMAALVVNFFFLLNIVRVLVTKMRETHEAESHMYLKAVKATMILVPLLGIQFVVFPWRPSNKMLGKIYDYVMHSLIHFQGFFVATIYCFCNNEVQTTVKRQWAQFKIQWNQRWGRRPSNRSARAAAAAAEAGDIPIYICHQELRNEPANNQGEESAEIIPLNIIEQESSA
The test is described as follows: ratio IC50 hCTR / IC50 hAmylin-R (reference: human amylin receptor), SPA competition assays. In a few lines:
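Scintillation proximity competition binding on cell membranes at 35 ng/μL with SPA beads, in 50 mM Hepes pH 7.4, 1 mM CaCl2, 5 mM MgCl₂, 0.1% OA, 0.02% Tween20. Incubated 120 min at 25° C with shaking. IC₅₀ from one-site competition fit.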

The target of test [3] is T2, human calcitonin receptor. Kind of test: SPA competition with 125I-calcitonin on membranes of BHK cells with human calcitonin receptor (Assay VII). Put shortly:
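BHK hCTR membranes 35 ng/μL + SPA beads 0.05 mg/well; buffer 50 mM Hepes pH 7.4, 1 mM CaCl2, 5 mM MgCl₂, 0.1% OA, 0.02% Tween20. 120 min, 25° C., shaking. Scintillation count; IC50 by one-site binding competition.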

B1: N^ε1-[(4S)-4-carboxy-4-[[(4S)-4-carboxy-4-(19-carboxynonadecanoylamino)butanoyl]amino]butanoyl]-[Ser14,Arg17,Pro21,Pro27,Pro34,Glu35]-h-amylin (peptide)
peptide: K([γGlu-γGlu-C20 diacid])CNTATCATQRLASFLRHSSPNFGAIPSSTNVGPETY-NH2
modifications: disulfide 2-7; N-terminus assumed
SMILES: CC[C@H](C)[C@H](NC(=O)[C@H](C)NC(=O)CNC(=O)[C@H](Cc1ccccc1)NC(=O)[C@H](CC(N)=O)NC(=O)[C@@H]1CCCN1C(=O)[C@H](CO)NC(=O)[C@H](CO)NC(=O)[C@H](Cc1c[nH]cn1)NC(=O)[C@H](CCCNC(=N)N)NC(=O)[C@H](CC(C)C)NC(=O)[C@H](Cc1ccccc1)NC(=O)[C@H](CO)NC(=O)[C@H](C)NC(=O)[C@H](CC(C)C)NC(=O)[C@H](CCCNC(=N)N)NC(=O)[C@H](CCC(N)=O)NC(=O)[C@@H](NC(=O)[C@H](C)NC(=O)[C@@H]1CSSC[C@H](NC(=O)[C@@H](N)CCCCNC(=O)CC[C@H](NC(=O)CC[C@H](NC(=O)CCCCCCCCCCCCCCCCCCC(=O)O)C(=O)O)C(=O)O)C(=O)N[C@@H](CC(N)=O)C(=O)N[C@@H]([C@@H](C)O)C(=O)N[C@@H](C)C(=O)N[C@@H]([C@@H](C)O)C(=O)N1)[C@@H](C)O)C(=O)N1CCC[C@H]1C(=O)N[C@@H](CO)C(=O)N[C@@H](CO)C(=O)N[C@H](C(=O)N[C@@H](CC(N)=O)C(=O)N[C@H](C(=O)NCC(=O)N1CCC[C@H]1C(=O)N[C@@H](CCC(=O)O)C(=O)N[C@H](C(=O)N[C@@H](Cc1ccc(O)cc1)C(N)=O)[C@@H](C)O)C(C)C)[C@@H](C)O
notes: also called compound 120
With B1, the IC50 in test [1] was found to be 0.076 nM; in test [3] it was 3.44 nM. Also, the “Ratio hCT/hAmylin binding” value in test [2] stood at 45.3.

B2: N^-1-[(4S)-4-carboxy-4-(19-carboxynonadecanoylamino)butanoyl]-Gly[Arg1,His14,Arg17,Pro21,Pro27,His34]-h-amylin (peptide)
peptide: {C20 diacid-γGlu}-GRCNTATCATQRLAHFLRHSSPNFGAIPSSTNVGHNTY-NH2
modifications: disulfide 3-8
SMILES: CC[C@H](C)[C@H](NC(=O)[C@H](C)NC(=O)CNC(=O)[C@H](Cc1ccccc1)NC(=O)[C@H](CC(N)=O)NC(=O)[C@@H]1CCCN1C(=O)[C@H](CO)NC(=O)[C@H](CO)NC(=O)[C@H](Cc1c[nH]cn1)NC(=O)[C@H](CCCNC(=N)N)NC(=O)[C@H](CC(C)C)NC(=O)[C@H](Cc1ccccc1)NC(=O)[C@H](Cc1c[nH]cn1)NC(=O)[C@H](C)NC(=O)[C@H](CC(C)C)NC(=O)[C@H](CCCNC(=N)N)NC(=O)[C@H](CCC(N)=O)NC(=O)[C@@H](NC(=O)[C@H](C)NC(=O)[C@@H]1CSSC[C@H](NC(=O)[C@H](CCCNC(=N)N)NC(=O)CNC(=O)CC[C@H](NC(=O)CCCCCCCCCCCCCCCCCCC(=O)O)C(=O)O)C(=O)N[C@@H](CC(N)=O)C(=O)N[C@@H]([C@@H](C)O)C(=O)N[C@@H](C)C(=O)N[C@@H]([C@@H](C)O)C(=O)N1)[C@@H](C)O)C(=O)N1CCC[C@H]1C(=O)N[C@@H](CO)C(=O)N[C@@H](CO)C(=O)N[C@H](C(=O)N[C@@H](CC(N)=O)C(=O)N[C@H](C(=O)NCC(=O)N[C@@H](Cc1c[nH]cn1)C(=O)N[C@@H](CC(N)=O)C(=O)N[C@H](C(=O)N[C@@H](Cc1ccc(O)cc1)C(N)=O)[C@@H](C)O)C(C)C)[C@@H](C)O
notes: also called compound 100
For the molecule B2, the IC50 in test [1] stood at 1.01 nM; in test [3], 66.3 nM. For the same molecule, in test [2], the “Ratio hCT/hAmylin binding” value stood at 65.3.

B3: N^-1-[(4S)-4-carboxy-4-(19-carboxynonadecanoylamino)butanoyl]-Gly[Arg1,His14,Arg17,Pro21,Pro27,Pro34]-h-amylin (peptide)
peptide: {C20 diacid-γGlu}-GRCNTATCATQRLAHFLRHSSPNFGAIPSSTNVGPNTY-NH2
modifications: disulfide 3-8
SMILES: CC[C@H](C)[C@H](NC(=O)[C@H](C)NC(=O)CNC(=O)[C@H](Cc1ccccc1)NC(=O)[C@H](CC(N)=O)NC(=O)[C@@H]1CCCN1C(=O)[C@H](CO)NC(=O)[C@H](CO)NC(=O)[C@H](Cc1c[nH]cn1)NC(=O)[C@H](CCCNC(=N)N)NC(=O)[C@H](CC(C)C)NC(=O)[C@H](Cc1ccccc1)NC(=O)[C@H](Cc1c[nH]cn1)NC(=O)[C@H](C)NC(=O)[C@H](CC(C)C)NC(=O)[C@H](CCCNC(=N)N)NC(=O)[C@H](CCC(N)=O)NC(=O)[C@@H](NC(=O)[C@H](C)NC(=O)[C@@H]1CSSC[C@H](NC(=O)[C@H](CCCNC(=N)N)NC(=O)CNC(=O)CC[C@H](NC(=O)CCCCCCCCCCCCCCCCCCC(=O)O)C(=O)O)C(=O)N[C@@H](CC(N)=O)C(=O)N[C@@H]([C@@H](C)O)C(=O)N[C@@H](C)C(=O)N[C@@H]([C@@H](C)O)C(=O)N1)[C@@H](C)O)C(=O)N1CCC[C@H]1C(=O)N[C@@H](CO)C(=O)N[C@@H](CO)C(=O)N[C@H](C(=O)N[C@@H](CC(N)=O)C(=O)N[C@H](C(=O)NCC(=O)N1CCC[C@H]1C(=O)N[C@@H](CC(N)=O)C(=O)N[C@H](C(=O)N[C@@H](Cc1ccc(O)cc1)C(N)=O)[C@@H](C)O)C(C)C)[C@@H](C)O
Take B3: the IC50 in test [1] is 0.217 nM; in test [3], 7.87 nM. Moreover, in test [2], the “Ratio hCT/hAmylin binding” value amounted to 36.2.

B4: N^-1-[(4S)-4-carboxy-4-(19-carboxynonadecanoylamino)butanoyl]-Gly[Arg1,Ala14,Arg17,Pro21,Pro27,Pro34]-h-amylin (peptide)
peptide: {C20 diacid-γGlu}-GRCNTATCATQRLAAFLRHSSPNFGAIPSSTNVGPNTY-NH2
modifications: disulfide 3-8
On to B4, for which the IC50 in test [1] was 0.114 nM; in test [3] it was 3 nM. For the same molecule, the “Ratio hCT/hAmylin binding” value in test [2] came out at 26.5.

B5: N^-1-[(4S)-4-carboxy-4-(19-carboxynonadecanoylamino)butanoyl]-Gly[Arg1,Ala14,Arg17,Pro21,Pro27,His34]-h-amylin (peptide)
peptide: {C20 diacid-γGlu}-GRCNTATCATQRLAAFLRHSSPNFGAIPSSTNVGHNTY-NH2
modifications: disulfide 3-8
SMILES: CC[C@H](C)[C@H](NC(=O)[C@H](C)NC(=O)CNC(=O)[C@H](Cc1ccccc1)NC(=O)[C@H](CC(N)=O)NC(=O)[C@@H]1CCCN1C(=O)[C@H](CO)NC(=O)[C@H](CO)NC(=O)[C@H](Cc1c[nH]cn1)NC(=O)[C@H](CCCNC(=N)N)NC(=O)[C@H](CC(C)C)NC(=O)[C@H](Cc1ccccc1)NC(=O)[C@H](C)NC(=O)[C@H](C)NC(=O)[C@H](CC(C)C)NC(=O)[C@H](CCCNC(=N)N)NC(=O)[C@H](CCC(N)=O)NC(=O)[C@@H](NC(=O)[C@H](C)NC(=O)[C@@H]1CSSC[C@H](NC(=O)[C@H](CCCNC(=N)N)NC(=O)CNC(=O)CC[C@H](NC(=O)CCCCCCCCCCCCCCCCCCC(=O)O)C(=O)O)C(=O)N[C@@H](CC(N)=O)C(=O)N[C@@H]([C@@H](C)O)C(=O)N[C@@H](C)C(=O)N[C@@H]([C@@H](C)O)C(=O)N1)[C@@H](C)O)C(=O)N1CCC[C@H]1C(=O)N[C@@H](CO)C(=O)N[C@@H](CO)C(=O)N[C@H](C(=O)N[C@@H](CC(N)=O)C(=O)N[C@H](C(=O)NCC(=O)N[C@@H](Cc1c[nH]cn1)C(=O)N[C@@H](CC(N)=O)C(=O)N[C@H](C(=O)N[C@@H](Cc1ccc(O)cc1)C(N)=O)[C@@H](C)O)C(C)C)[C@@H](C)O
Turning to B5, the IC50 is 0.426 nM in test [1] and 29.2 nM in test [3]. For the same molecule, the “Ratio hCT/hAmylin binding” value in test [2] was determined as 68.6.
